Results from the supplement of paper PMC10126150.
± gives the standard deviation of the averaged measurements.

Test system: ATP
Experiment: switch fluorescence ratio, 500 uM ATP over buffer (Cy3 cluster intensity, sum of 5 cycles each) (fold (ratio)); higher = stronger signal-on switching upon ATP binding; sequences stand for … in TCGTCGGCAGCGTCAGATGTGTATAAGAGACAGTTTTTTTTTTTTTTTTTTTTTTTTT…TC
Details: aptamer strand: ATP DNA aptamer (quencher-CACCTGGGGGAGTATTGCGGAGGAAGG + anchor), 100 nM annealed; ATP concentration: 500 uM
Summary of the method: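 Clusters with intensities outside 100-1000 RFU were excluded. The remaining Cy3-labelled switching-strand clusters on a modified Illumina MiSeq flow-cell had been annealed to 100 nM quencher-labelled ATP aptamer and imaged in selection buffer, then after 15 min with 500 uM ATP at 22 °C, for five cycles separated by NaOH stripping and re-annealing. The fluorescence ratio, averaged per switch-domain sequence, is each cluster's summed target-cycle Cy3 intensity over its summed buffer-cycle Cy3 intensity.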
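Further: ATP exposure 15 min at 22 °C before imaging.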

Row | Sequence | switch fluorescence ratio
1 | GGGGGATGTC | 1 ± 0.034
2 | GGGGGATTTC | 1.12 ± 0.26
3 | GGGGGATTTG | 0.998 ± 0.013
4 | GGGGGCACTC | 0.986 ± 0.031
5 | GGGGGCCACT | 0.975 ± 0.041
6 | GGGGGCCGGG | 1.01 ± 0.052
7 | GGGGGCCTGT | 1.01 ± 0.035
8 | GGGGGCGCGG | 0.996 ± 0.015
9 | GGGGGCGGAA | 1 ± 0.027
10 | GGGGGCGGGT | 1 ± 0.044
11 | GGGGGCTAAG | 1.026 ± 0.0039
12 | GGGGGCTATG | 0.99 ± 0.015
13 | GGGGGCTTAG | 0.988 ± 0.038
14 | GGGGGGACGC | 1.02 ± 0.013
15 | GGGGGGACTA | 1.03 ± 0.031
16 | GGGGGGAGCC | 0.996 ± 0.015
17 | GGGGGGATGA | 0.992 ± 0.024
18 | GGGGGGCAAA | 1 ± 0.015
19 | GGGGGGCAGA | 1 ± 0.029
20 | GGGGGGCATT | 0.99 ± 0.033
21 | GGGGGGCGCA | 1.02 ± 0.038
22 | GGGGGGCGCG | 1.01 ± 0.025
23 | GGGGGGCTAG | 1 ± 0.058
24 | GGGGGGGCAA | 1.24 ± 0.48
25 | GGGGGGGCCA | 1.01 ± 0.041

Row | Sequence | switch fluorescence ratio
26 | GGGGGGGCTT | 0.998 ± 0.031
27 | GGGGGGGGT | 1 ± 0.02
28 | GGGGGGGGTA | 1 ± 0.044
29 | GGGGGGTAGT | 1.02 ± 0.067
30 | GGGGGGTATT | 0.987 ± 0.037
31 | GGGGGGTGGG | 0.996 ± 0.039
32 | GGGGGGTTCT | 1.01 ± 0.042
33 | GGGGGGTTGT | 1.03 ± 0.17
34 | GGGGGTAAAG | 1.01 ± 0.022
35 | GGGGGTACCG | 0.977 ± 0.021
36 | GGGGGTACCT | 1.02 ± 0.019
37 | GGGGGTACGC | 1.03 ± 0.028
38 | GGGGGTACTT | 1 ± 0.03
39 | GGGGGTATGC | 1.05 ± 0.15
40 | GGGGGTCACA | 0.989 ± 0.029
41 | GGGGGTCATG | 1.02 ± 0.073
42 | GGGGGTCCGT | 1 ± 0.025
43 | GGGGGTGAAA | 0.987 ± 0.011
44 | GGGGGTGACC | 1.02 ± 0.025
45 | GGGGGTGAGG | 1.01 ± 0.043
46 | GGGGGTGAGT | 1.02 ± 0.012
47 | GGGGGTGATC | 0.979 ± 0.024
48 | GGGGGTGCCT | 0.986 ± 0.064
49 | GGGGGTGCGG | 0.977 ± 0.044
50 | GGGGGTGGGA | 1 ± 0.019

Row | Sequence | switch fluorescence ratio
51 | GGGGGTGTAG | 1.008 ± 0.0053
52 | GGGGGTTCAG | 0.978 ± 0.04
53 | GGGGGTTGAT | 0.991 ± 0.069
54 | GGGGGTTGGA | 1.01 ± 0.032
55 | GGGGGTTTAC | 1.01 ± 0.013
56 | GGGGGTTTAT | 1.01 ± 0.017
57 | GGGGGTTTTT | 0.997 ± 0.033
58 | GGGGTAAAGG | 1.04 ± 0.11
59 | GGGGTAAATT | 1 ± 0.039
60 | GGGGTAACGT | 0.983 ± 0.02
61 | GGGGTAAGGA | 1 ± 0.021
62 | GGGGTAATTG | 1.01 ± 0.019
63 | GGGGTACCGG | 1.02 ± 0.032
64 | GGGGTACGCA | 1.02 ± 0.015
65 | GGGGTACGGG | 1.05 ± 0.024
66 | GGGGTACGGT | 1 ± 0.018
67 | GGGGTAGCGG | 0.92645 ± 0.0002
68 | GGGGTAGGGT | 0.997 ± 0.032
69 | GGGGTAGGTA | 0.96 ± 0.038
70 | GGGGTAGTAC | 1.03 ± 0.026
71 | GGGGTAGTTG | 0.99 ± 0.028
72 | GGGGTATATC | 1 ± 0.024
73 | GGGGTATATT | 0.9938 ± 0.0062
74 | GGGGTATGCC | 1.01 ± 0.027
75 | GGGGTATGGC | 1.03 ± 0.023

Row | Sequence | switch fluorescence ratio
76 | GGGGTATGTA | 0.987 ± 0.055
77 | GGGGTCACTA | 0.9559 ± 0.009
78 | GGGGTCAGAC | 1 ± 0.022
79 | GGGGTCAGGG | 1.02 ± 0.026
80 | GGGGTCATGC | 0.97 ± 0.041
81 | GGGGTCGCTG | 0.965 ± 0.013
82 | GGGGTCGGCC | 0.995 ± 0.018
83 | GGGGTCGTCA | 1.04 ± 0.0072
84 | GGGGTCGTCT | 1.02 ± 0.015
85 | GGGGTCTAAT | 0.999 ± 0.048
86 | GGGGTCTGAG | 0.989 ± 0.019
87 | GGGGTCTTAT | 0.996 ± 0.038
88 | GGGGTGAAGC | 1.02 ± 0.036
89 | GGGGTGAAT | 1.01 ± 0.021
90 | GGGGTGAC | 1.0027 ± 0.00099
91 | GGGGTGAGAA | 1.02 ± 0.046
92 | GGGGTGAGCC | 0.978 ± 0.017
93 | GGGGTGAGGT | 0.997 ± 0.016
94 | GGGGTGCACG | 0.988 ± 0.051
95 | GGGGTGCCTT | 1.037 ± 0.0021
96 | GGGGTGCGCG | 0.968 ± 0.025
97 | GGGGTGCGGG | 0.99 ± 0.032
98 | GGGGTGGTAG | 1.01 ± 0.012
99 | GGGGTGGTGG | 0.9888 ± 0.007
100 | GGGGTGGTTG | 0.986 ± 0.036

Row | Sequence | switch fluorescence ratio
101 | GGGGTGTATA | 1 ± 0.045
102 | GGGGTGTATT | 0.984 ± 0.025
103 | GGGGTGTCTT | 0.992 ± 0.031
104 | GGGGTGTGCG | 0.9883 ± 0.0051
105 | GGGGTGTTCA | 0.999 ± 0.047
106 | GGGGTGTTGG | 1.01 ± 0.019
107 | GGGGTTAGCG | 0.991 ± 0.021
108 | GGGGTTAGTT | 0.993 ± 0.023
109 | GGGGTTATAA | 0.998 ± 0.043
110 | GGGGTTATCG | 0.99 ± 0.029
111 | GGGGTTATCT | 1.01 ± 0.026
112 | GGGGTTATTA | 0.992 ± 0.017
113 | GGGGTTCACG | 0.988 ± 0.005
114 | GGGGTTCCGT | 1 ± 0.025
115 | GGGGTTCGGG | 0.992 ± 0.017
116 | GGGGTTCGTC | 1 ± 0.044
117 | GGGGTTCTCG | 1.001 ± 0.0031
118 | GGGGTTCTGC | 0.952 ± 0.039
119 | GGGGTTGCTG | 1 ± 0.024
120 | GGGGTTGGCT | 0.995 ± 0.03
121 | GGGGTTGTGT | 0.996 ± 0.026
122 | GGGGTTGTTA | 0.988 ± 0.021
123 | GGGGTTTAGC | 0.996 ± 0.015
124 | GGGGTTTATG | 0.975 ± 0.028
125 | GGGGTTTCTC | 1.02 ± 0.031

Row | Sequence | switch fluorescence ratio
126 | GGGGTTTTAC | 0.995 ± 0.036
127 | GGGGTTTTCA | 1.022 ± 0.0042
128 | GGGTAAAGAA | 1.01 ± 0.036
129 | GGGTAAATAG | 1.034 ± 0.007
130 | GGGTAAATGC | 1.01 ± 0.1
131 | GGGTAACGGA | 1.03 ± 0.04
132 | GGGTAACTTT | 1.08 ± 0.07
133 | GGGTAAGAG | 1.029 ± 0.0042
134 | GGGTAAGCCC | 0.987 ± 0.015
135 | GGGTAAGCCG | 0.918 ± 0.02
136 | GGGTAAGCTG | 1.04 ± 0.081
137 | GGGTAAGGCT | 1.01 ± 0.032
138 | GGGTAAGGGT | 1.13 ± 0.37
139 | GGGTAATGCA | 1.033 ± 0.0053
140 | GGGTAATGGC | 0.971 ± 0.014
141 | GGGTACAGGA | 0.99686 ± 5.1e-05
142 | GGGTACCTAC | 1.06 ± 0.042
143 | GGGTACGAGT | 0.9314 ± 0.0031
144 | GGGTACGTTC | 1.01 ± 0.023
145 | GGGTACGTTG | 1.01 ± 0.016
146 | GGGTACGTTT | 0.97231 ± 0.00073
147 | GGGTAGAAAA | 1.01 ± 0.043
148 | GGGTAGACAG | 0.9316 ± 0.0069
149 | GGGTAGAGTT | 0.9659 ± 0.0052
150 | GGGTAGCTTG | 0.989 ± 0.03

Row | Sequence | switch fluorescence ratio
151 | GGGTAGGTTT | 1.02 ± 0.059
152 | GGGTAGTAGT | 0.958 ± 0.035
153 | GGGTAGTCTG | 1 ± 0.049
154 | GGGTATCCTC | 0.986 ± 0.037
155 | GGGTATCCTT | 1.01 ± 0.025
156 | GGGTATGAGC | 0.969 ± 0.04
157 | GGGTATGCGG | 0.978 ± 0.042
158 | GGGTATGCTG | 0.9479 ± 0.0067
159 | GGGTATGGTT | 0.998 ± 0.028
160 | GGGTATGTTG | 0.978 ± 0.032
161 | GGGTATTATT | 1.022 ± 0.0047
162 | GGGTATTGGT | 0.996 ± 0.025
163 | GGGTATTTTA | 0.988 ± 0.057
164 | GGGTCAACGA | 1.03 ± 0.051
165 | GGGTCAGCTG | 0.986 ± 0.036
166 | GGGTCAGTAG | 1.032 ± 0.0087
167 | GGGTCATGTC | 0.934 ± 0.052
168 | GGGTCATTCA | 0.9922 ± 0.0049
169 | GGGTCCGCTG | 1.06 ± 0.07
170 | GGGTCCGGTC | 1.0075 ± 7.9e-05
171 | GGGTCCTGGG | 0.973 ± 0.012
172 | GGGTCGATGT | 1.02 ± 0.056
173 | GGGTCGCAGA | 1.04 ± 0.058
174 | GGGTCGCCAT | 1 ± 0.028
175 | GGGTCGGGTT | 0.972 ± 0.037

Row | Sequence | switch fluorescence ratio
176 | GGGTCGGTTT | 1.01 ± 0.019
177 | GGGTCGTCAT | 1.01 ± 0.015
178 | GGGTCTAGGT | 0.997 ± 0.03
179 | GGGTCTCATC | 1.02 ± 0.065
180 | GGGTCTTAAT | 0.981 ± 0.031
181 | GGGTCTTATG | 1.03 ± 0.078
182 | GGGTCTTGTA | 0.99 ± 0.016
183 | GGGTCTTTGT | 0.981 ± 0.026
184 | GGGTGAAGGT | 0.9866 ± 0.0047
185 | GGGTGAAGTT | 0.984 ± 0.036
186 | GGGTGAATGT | 0.993 ± 0.041
187 | GGGTGACAAC | 1.002 ± 0.0084
188 | GGGTGACCAA | 0.969 ± 0.013
189 | GGGTGACGGT | 1.01 ± 0.04
190 | GGGTGAGATA | 1.07 ± 0.011
191 | GGGTGAGTG | 0.996 ± 0.016
192 | GGGTGATCGA | 0.98 ± 0.054
193 | GGGTGATGAA | 1 ± 0.045
194 | GGGTGATGGA | 0.991 ± 0.026
195 | GGGTGATGTG | 0.955 ± 0.022
196 | GGGTGCATGT | 0.99 ± 0.02
197 | GGGTGCTGGG | 0.999 ± 0.042
198 | GGGTGGAAAA | 0.997 ± 0.048
199 | GGGTGGACAG | 0.975 ± 0.017
200 | GGGTGGACGG | 0.993 ± 0.06
